This is an account of results in the RNAGym collection of RNA variant scans (doi:10.7554/elife.90254).

First the molecules themselves.
B1: OR4K15 (parent)
chain: GUUAACGGUCAUAGGCCAUGGAAACUAGGAGCACCAUUUCGCUGCCAGUGAAGAAAUGAACAAAGAAAAUCUGGGCCAGGCAGGCAUCAAAAGAAAUAGUCUUGCGCUCAACCAGAAAGUCUGUAAUCAUUUUAAGGGUA

In the series the parent is B1. Kind of series: self-cleavage, relative activity (ratio to wild type); higher = more cleavage; in vitro, sequencing; the parent is a self-cleaving ribozyme.
For U97A C101U, the self-cleavage came to 0.49.

A92G U127A: the self-cleavage is 2.33.

Regarding U102A A110G, the self-cleavage turned out to be 0.1.

Regarding A98U U102C, the self-cleavage was 2.78.

In the case of U100C U103C, the self-cleavage was 2.89.

Consider U97A A135G, for which the self-cleavage turned out to be 1.79.

On to A95G U122C, for which the self-cleavage is 1.2.

Take A95G U122A: the self-cleavage is 1.78.

With U100A U122C, the self-cleavage turned out to be 0.28.

Regarding A96G C107A, the self-cleavage amounted to 0.01.

A92U A125G: the self-cleavage is 0.58.

In the case of A92U A129U, the self-cleavage came out at 1.

In the case of A92U A129G, the self-cleavage came to 1.13.

A95G C107A: the self-cleavage was 0.02.

For A95G C107U, the self-cleavage came out at 0.01.

Regarding U102C A125G, the self-cleavage came to 1.5.

As for A92U A116G, the self-cleavage worked out at 0.99.

With A95G, the self-cleavage was 1.85.

A95U: the self-cleavage came out at 1.65.

On to A95C, for which the self-cleavage was 1.06.

Consider A92G U122C, for which the self-cleavage amounted to 1.19.

On to U102A U122C, for which the self-cleavage was determined as 0.55.

As for U102A G138A, the self-cleavage was 0.55.

In the case of A95G U127C, the self-cleavage was determined as 1.56.

Regarding A94G A95G, the self-cleavage was determined as 1.9.

Turning to A95G G115A, the self-cleavage turned out to be 0.19.

On to A96G A126G, for which the self-cleavage is 1.01.

As for U102C A110U, the self-cleavage is 1.94.

As for G99A, the self-cleavage stood at 0.56.

Regarding G99U, the self-cleavage came out at 0.51.

In the case of A98U U127C, the self-cleavage was 1.98.

On to A95G A126U, for which the self-cleavage amounted to 1.42.

In the case of A96U G99A, the self-cleavage was found to be 0.44.

As to U97A U130C, the self-cleavage is 1.59.

In the case of A92G U139A, the self-cleavage worked out at 2.12.

With A92G U139G, the self-cleavage is 1.3.

A95G A129G: the self-cleavage was found to be 2.42.

A94G C113U: the self-cleavage was determined as 0.03.

On to A98C U122C, for which the self-cleavage is 2.2.

Turning to A95U G104A, the self-cleavage was 0.05.

In the case of U102A U108C, the self-cleavage is 0.

Turning to A96C A118U, the self-cleavage was 0.32.

Turning to G93U G123A, the self-cleavage worked out at 0.77.

Consider U100C A135U, for which the self-cleavage is 2.37.

As to U100C A135G, the self-cleavage came out at 1.74.

Turning to A98C, the self-cleavage worked out at 0.96.

As for A98G, the self-cleavage turned out to be 0.44.

Take A98U: the self-cleavage came out at 2.22.

A92U A118U: the self-cleavage was found to be 0.74.

As for U97C A126G, the self-cleavage was determined as 1.22.

As to U97A A116G, the self-cleavage was found to be 1.19.

As for A95G A140G, the self-cleavage was found to be 1.73.

Consider A95G A140U, for which the self-cleavage came out at 2.09.

In the case of A96G U133C, the self-cleavage is 1.82.

As for U97C A134G, the self-cleavage amounted to 1.02.

A95G U103A: the self-cleavage turned out to be 1.55.

Turning to A94G U102C, the self-cleavage came to 1.87.

For A98U A118U, the self-cleavage is 1.62.

With U100A A118G, the self-cleavage is 0.47.

As for G99A A134G, the self-cleavage stood at 0.6.

Consider A92G U103A, for which the self-cleavage was found to be 0.8.

On to A94U U97C, for which the self-cleavage was 1.31.

For the variant A94U U97G, the self-cleavage stood at 1.52.

Regarding U102C A111U, the self-cleavage worked out at 0.04.

Take C101U U108C: the self-cleavage was determined as 0.01.

As to U97C U127C, the self-cleavage was found to be 1.25.

Turning to U97C U127A, the self-cleavage stood at 0.81.

Turning to U97G U132C, the self-cleavage was 1.54.

With A94G A111U, the self-cleavage was 0.06.

A92U A126G: the self-cleavage was found to be 1.18.

Take A92U G104A: the self-cleavage came to 0.01.

Take A94G A114C: the self-cleavage is 0.05.

Turning to A94G A114U, the self-cleavage turned out to be 0.04.

Take U100A A140U: the self-cleavage stood at 0.83.

As for A96G C101U, the self-cleavage was determined as 0.4.

A96C A111G: the self-cleavage turned out to be 0.03.

As for A95G A96G, the self-cleavage was 1.25.

For the variant A95G A96C, the self-cleavage is 0.77.

With A94G U130G, the self-cleavage was found to be 1.09.

A94G A98U: the self-cleavage was 2.36.

On to A96U U122C, for which the self-cleavage amounted to 1.54.

For the variant A94U U102C, the self-cleavage came to 1.36.

For U97G A98G, the self-cleavage was determined as 1.98.

With A95G G136U, the self-cleavage worked out at 2.65.

G93U A135G: the self-cleavage was 1.96.

Regarding A98G U127A, the self-cleavage came out at 0.78.

On to A98U U120C, for which the self-cleavage amounted to 1.65.

In the case of G93U, the self-cleavage came to 1.83.

Turning to G93A, the self-cleavage amounted to 2.17.

For the variant A96G U122C, the self-cleavage stood at 1.38.

In the case of A98G U100C, the self-cleavage worked out at 2.04.

For A96G A117G, the self-cleavage was 2.13.

Consider U97C U130C, for which the self-cleavage was 0.85.

As to A98G A114G, the self-cleavage stood at 0.15.

On to A92G C105U, for which the self-cleavage is 0.08.

With A96C C109U, the self-cleavage worked out at 0.21.

For the variant G99A U103C, the self-cleavage was found to be 0.07.

With A96C A140U, the self-cleavage stood at 1.14.

In the case of A94G U108G, the self-cleavage worked out at 0.07.

A94G U108C: the self-cleavage is 0.01.

For A92U, the self-cleavage was found to be 1.71.

As for U100C U127G, the self-cleavage worked out at 2.43.

Take A94U U124C: the self-cleavage was found to be 1.66.

Regarding U97C A118G, the self-cleavage worked out at 0.77.

For U97C A118U, the self-cleavage stood at 1.62.

As for A98U A110U, the self-cleavage came to 1.67.

In the case of A98U A110G, the self-cleavage stood at 0.17.

As to A96U A111G, the self-cleavage was 0.04.

Turning to A98G U102C, the self-cleavage amounted to 2.44.

For A95G A114G, the self-cleavage is 1.17.

Regarding A95G A114C, the self-cleavage is 0.06.

U97C U100C: the self-cleavage stood at 2.15.

Take A95G U100C: the self-cleavage came to 2.52.

Take A95G U100A: the self-cleavage worked out at 1.26.

On to A98G A110U, for which the self-cleavage is 0.31.

For A98G A110G, the self-cleavage was found to be 0.06.

Regarding A98G A135C, the self-cleavage came out at 0.44.

Turning to U97C U133C, the self-cleavage stood at 1.53.

As for A96G U100A, the self-cleavage was 0.78.

Take A96G A111C: the self-cleavage came out at 0.01.

As to A94G A110G, the self-cleavage was determined as 0.13.

Consider U100A U130C, for which the self-cleavage turned out to be 0.09.

Turning to U100A G123A, the self-cleavage worked out at 0.47.

As for U100A A111G, the self-cleavage worked out at 0.02.

Take A95G A118G: the self-cleavage worked out at 0.75.

For A95G A118U, the self-cleavage was determined as 1.09.

Regarding A94G A117U, the self-cleavage came out at 0.67.

Regarding U97A U132A, the self-cleavage amounted to 2.62.

Regarding U97A U132C, the self-cleavage is 0.95.

As to A95C U103C, the self-cleavage was determined as 1.28.

On to A92G U124C, for which the self-cleavage turned out to be 1.

Take A96G U103G: the self-cleavage worked out at 0.03.

In the case of A96G U103A, the self-cleavage stood at 1.08.

Consider A96U A117G, for which the self-cleavage came to 1.75.

As for G99U A117G, the self-cleavage was found to be 0.36.

In the case of U97C U132C, the self-cleavage is 1.45.

For the variant U97C U132A, the self-cleavage was found to be 1.28.

For A96G G137U, the self-cleavage is 1.8.

In the case of A98U A126G, the self-cleavage was 1.86.

As to A94U U108C, the self-cleavage was determined as 0.02.

In the case of G93A A95G, the self-cleavage is 2.26.

Take A95G U102A: the self-cleavage came out at 2.24.

For A95G U102C, the self-cleavage was found to be 2.62.

Regarding A96U U131C, the self-cleavage was 2.32.

Consider A95G U124A, for which the self-cleavage was 0.8.

On to A95G U124C, for which the self-cleavage is 1.85.

Consider A95G A98G, for which the self-cleavage was 1.49.

Turning to C101A A114G, the self-cleavage was 0.02.

As to U97C A110G, the self-cleavage was determined as 0.11.

On to A95G U108C, for which the self-cleavage worked out at 0.01.

On to C101U C105A, for which the self-cleavage amounted to 0.01.

As for A95G A125U, the self-cleavage amounted to 0.96.

A96G A116G: the self-cleavage was 0.98.

As to A96G U131G, the self-cleavage came out at 0.85.

For the variant U100C U130A, the self-cleavage was found to be 2.16.

Take A94G A140G: the self-cleavage was found to be 1.53.

On to U102A A117G, for which the self-cleavage was determined as 1.12.

Turning to A92G G106U, the self-cleavage turned out to be 0.01.

As for A92G G106A, the self-cleavage was determined as 0.02.

As to A94C A116C, the self-cleavage is 0.25.

G93A A135G: the self-cleavage came out at 2.27.

Take A96G U102A: the self-cleavage came to 1.52.

For the variant A96G U102C, the self-cleavage stood at 2.33.

A96G U102G: the self-cleavage was 1.08.

Take U97A U122C: the self-cleavage is 1.83.

For the variant U97A U127C, the self-cleavage amounted to 1.36.

On to A95G G123A, for which the self-cleavage worked out at 1.22.
